B1: G32 (Fab, V domains shown)
VH: EVQLVESGGGLVQPGGSLRLSCAASGFSIWWSWIHWVRQAPGKGLEWVASISPSSGWTSYADSVKGRFTISADTSKNTAYLQMNSLRAEDTAVYYCARWWSSGMDYWGQGTLVTVSS
VL: DIQMTQSPSSLSASVGDRVTITCRASQDVNTAVAWYQQKPGKAPKLLIYSASSLYSGVPSRFSGSRSGTDFTLTISSLQPEDFATYYCQQWWWWPWTFGQGTKVEIK
B2: G40 (Fab, V domains shown)
VH: EVQLVESGGGLVQPGGSLRLSCAASGFSIWWSWIHWVRQAPGKGLEWVASISPSSGWTSYADSVKGRFTISADTSKNTAYLQMNSLRAEDTAVYYCARWSSWGLDYWGQGTLVTVSS
VL: DIQMTQSPSSLSASVGDRVTITCRASQDVNTAVAWYQQKPGKAPKLLIYSASSLYSGVPSRFSGSRSGTDFTLTISSLQPEDFATYYCQQWSWWPSTFGQGTKVEIK
B3: Clone YSGR-A-42, purified soluble Fab (Fab, V domains shown)
VH: EVQLVESGGGLVQPGGSLRLSCAASGFYISSSSIHWVRQAPGKGLEWVAYIYPSSGYTSYADSVKGRFTISADTSKNTAYLQMNSLRAEDTAVYYCARGYYYSYYSGYALDYWGQGTLVTVSS
VL: DIQMTQSPSSLSASVGDRVTITCRASQDVNTAVAWYQQKPGKAPKLLIYSASSLYSGVPSRFSGSRSGTDFTLTISSLQPEDFATYYCQQSYSSPSTFGQGTKVEIK
notes: also called clone 42 (YSGR-A); clone 42
B4: B27 (Fab, V domains shown)
VH: EVQLVESGGGLVQPGGSLRLSCAASGFSISYSSIHWVRQAPGKGLEWVASIYPYYGYTSYADSVKGRFTISADTSKNTAYLQMNSLRAEDTAVYYCARFFFFSSSFFGFDYWGQGTLVTVSS
VL: DIQMTQSPSSLSASVGDRVTITCRASQDVNTAVAWYQQKPGKAPKLLIYSASSLYSGVPSRFSGSRSGTDFTLTISSLQPEDFATYYCQQYSYYPYTFGQGTKVEIK
notes: also called SXH3-B27 Fab-phage
B5: G36 (Fab, V domains shown)
VH: EVQLVESGGGLVQPGGSLRLSCAASGFSIWWSWIHWVRQAPGKGLEWVASISPSSGWTSYADSVKGRFTISADTSKNTAYLQMNSLRAEDTAVYYCARWSSSAFDYWGQGTLVTVSS
VL: DIQMTQSPSSLSASVGDRVTITCRASQDVNTAVAWYQQKPGKAPKLLIYSASSLYSGVPSRFSGSRSGTDFTLTISSLQPEDFATYYCQQWWWWPSTFGQGTKVEIK
B6: G35 (Fab, V domains shown)
VH: EVQLVESGGGLVQPGGSLRLSCAASGFSISWSWIHWVRQAPGKGLEWVASIWPSSGWTSYADSVKGRFTISADTSKNTAYLQMNSLRAEDTAVYYCARWWSSALDYWGQGTLVTVSS
VL: DIQMTQSPSSLSASVGDRVTITCRASQDVNTAVAWYQQKPGKAPKLLIYSASSLYSGVPSRFSGSRSGTDFTLTISSLQPEDFATYYCQQWWWWPSTFGQGTKVEIK
B7: Clone G54 (SX-surface), purified soluble Fab (Fab, V domains shown)
VH: EVQLVESGGGLVQPGGSLRLSCAASGFSISSSYIHWVRQAPGKGLEWVASIYPYSGYTSYADSVKGRFTISADTSKNTAYLQMNSLRAEDTAVYYCARYYSYALDYWGQGTLVTVSS
VL: DIQMTQSPSSLSASVGDRVTITCRASQDVNTAVAWYQQKPGKAPKLLIYSASSLYSGVPSRFSGSRSGTDFTLTISSLQPEDFATYYCQQSYYYPSTFGQGTKVEIK
notes: Tyrosine-containing clone
B8: Clone B11 (SXH3), purified soluble Fab (Fab, V domains shown)
VH: EVQLVESGGGLVQPGGSLRLSCAASGFSIYSSYIHWVRQAPGKGLEWVASIYPYSGYTSYADSVKGRFTISADTSKNTAYLQMNSLRAEDTAVYYCARWWSSAFDYWGQGTLVTVSS
VL: DIQMTQSPSSLSASVGDRVTITCRASQDVNTAVAWYQQKPGKAPKLLIYSASSLYSGVPSRFSGSRSGTDFTLTISSLQPEDFATYYCQQSYYYPSTFGQGTKVEIK
notes: Tryptophan-containing clone
B9: Clone G37 (SX-surface), purified Fab (Fab, V domains shown)
VH: EVQLVESGGGLVQPGGSLRLSCAASGFSIWWSWIHWVRQAPGKGLEWVASISPSSGWTSYADSVKGRFTISADTSKNTAYLQMNSLRAEDTAVYYCARWWSSAMDYWGQGTLVTVSS
VL: DIQMTQSPSSLSASVGDRVTITCRASQDVNTAVAWYQQKPGKAPKLLIYSASSLYSGVPSRFSGSRSGTDFTLTISSLQPEDFATYYCQQWWWWPSTFGQGTKVEIK

How the values were obtained:
human IGF-1 (human) = human IGF-1 (human) (UniProt P05019); assay: specificity phage ELISA
human VEGF (human) = human VEGF (human) (UniProt P15692); assay: specificity phage ELISA
human insulin (human) = human insulin (human) (UniProt P01308); assay: specificity phage ELISA
neutravidin = neutravidin (UniProt P02701); assay: specificity phage ELISA
[1] = target: T1, human HER-2 extracellular domain (HER-2 ECD) (human, UniProt P04626 23-646); assay: competitive Fab-phage ELISA
T1 construct: range 23-646; also called erbB2; HER2 protein

[2] = target: T1, human HER-2 extracellular domain (HER-2 …); assay: Fab-phage binding affinity
[3] = target: T1, human HER-2 extracellular domain (HER-2 …); assay: competitive Fab-phage ELISA; remark: listed apart in the source
[4] = target: T1, human HER-2 extracellular domain (HER-2 …); assay: SPR (BIAcore A100), HER2 amine-coupled to the chip, soluble Fab injected, 25 C
[5] = target: T1, human HER-2 extracellular domain (HER-2 …); assay: competitive Fab-phage ELISA; remark: listed apart in the source
[6] = target: human DR5 (construct not stated) (human) (UniProt O14763); assay: specificity phage ELISA

Binder | ELISA signal at 450 nm (human IGF-1 (human)) | ELISA signal at 450 nm (human VEGF (human)) | ELISA signal at 450 nm (human insulin (human)) | ELISA signal at 450 nm (neutravidin) | IC50 [1] [nM] | IC50 [2] [nM] | IC50 [3] [nM] | Kd [4] [nM] | koff [4] [s⁻¹] | kon [4] [M⁻¹ s⁻¹] | IC50 [5] [nM] | ELISA signal at 450 nm [6]
B1 | 0.52 | 0.35 | 0.48 | 0.33 | 1.12 | – | – | – | – | – | – | –
B2 | 0.85 | 0.31 | 2.64 | 0.45 | 1.8 | – | – | – | – | – | – | –
B3 | – | – | – | – | – | 0.32 | 0.32 | 0.57 | 0.0015 | 2.7e+06 | – | –
B4 | – | – | – | – | – | 71.7 | – | – | – | – | 71.7 | –
B5 | 0.3 | 0.38 | 0.29 | 0.26 | 1.2 | – | – | – | – | – | – | –
B6 | 0.25 | 0.31 | 0.37 | 0.29 | 0.65 | – | – | – | – | – | – | –
B7 | – | – | – | – | 2.44 | 2.44 | – | 11 | 0.0022 | 200000 | – | –
B8 | – | – | – | – | – | 0.85 | – | 0.89 | 0.0017 | 1.9e+06 | 0.85 | –
B9 | 0.32 | 0.23 | 0.45 | 0.32 | 0.31 | 0.31 | – | – | – | – | – | 0.21

Source: patent US20070202552A1 (Genentech, published 2007)
